Measured values reported in paper PMC6021487.

Molecular target: IL-33 (UniProt O95760)
Test: co-immunoprecipitation with anti-HA, immunoblot
Details: reference: wild type PTRF; sites Y158

binding against the reference: stronger
Substance: polymerase I and transcript release factor (PTRF, Cavin-1) (from UniProt O54724) PTRF Y158F
